# B1: GFP-CDK16 (enzyme)
# chain: not shown
# notes: Cyclin-dependent kinase 16 (CDK16), human, isoform 1; also called GFP-CDK16-wt; PCTAIRE1; source: HeLa, transfected, in lysate
# Target: T1, Cyclin Y-Flag (human, UniProt Q8ND76-1 1-341)
# T1 construct: Cyclin Y, human, isoform 1 (CCNYiso1 cDNA clone in pcDNA3-FLAG); In cells partly phosphorylated at S326 (more after AICAR/A769662) and at S336; also called Cyclin Y-Flag-wt; wild-type Cyclin Y; source: HeLa or U2OS, transfected, in lysate
# Assay: co-IP; HeLa cells transfected with Cyclin Y-Flag, with or without GFP-tagged CDK; with or without 0.5 mM AICAR/50 µM A769662 for 1 h; lysate in Frackelton buffer, anti-FLAG M2 beads 2 h at 4 °C, three washes, immunoblot
# Conditions: partners not purified
# T1 sequence (Q8ND76 whole entry, canonical isoform): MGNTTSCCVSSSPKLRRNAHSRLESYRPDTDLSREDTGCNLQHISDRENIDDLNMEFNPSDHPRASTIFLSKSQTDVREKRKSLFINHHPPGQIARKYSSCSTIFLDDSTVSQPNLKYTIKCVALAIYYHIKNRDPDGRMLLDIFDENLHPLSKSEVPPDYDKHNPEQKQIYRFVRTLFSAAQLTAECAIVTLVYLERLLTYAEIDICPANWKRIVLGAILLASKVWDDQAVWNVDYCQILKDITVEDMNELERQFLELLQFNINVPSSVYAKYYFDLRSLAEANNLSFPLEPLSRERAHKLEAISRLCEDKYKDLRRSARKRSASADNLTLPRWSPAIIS
binder,measurement,value
B1,fold change of co-immunoprecipitated CDK16 with AICAR/A769662 against untreated,2 fold

# From publication PMC7042329, “AMPK-dependent activation of the Cyclin Y/CDK16 complex controls autophagy” (Nature Communications, 2020)
